This experiment has as its target GFP-CaV1.1e (embryonic splice variant of CaV1.1, lacking exon 29).

B1: γ1 subunit of the skeletal muscle voltage-gated calcium channel (mouse γ1) (natural protein)
chain: MSQTKTAKVRVTLFFILVGGVLAMVAVVTDHWAVLSPHLEHHNETCEAAHFGLWRICTARVAVHNKDKSCEHVTPSGEKNCSYFRHFNPGESSEIFEFTTQKEYSISAAAIAIFSLGFIIVGSICAFLSFGNKRDYLLRPASMFYAFAGLCLIVSVEVMRQSVKRMIDSEDTVWIEHYYSWSFACACAAFILLFLGGLFLLLFSLPRMPQNPWESCMDAEPEH
With B1, the shift of the half-maximal potential of steady-state inactivation of CaV1.1e calcium currents to hyperpolarizing potentials on coexpression of γ1 (whole-cell patch clamp, HEK-TetOn-STAC3 cells) came out at 13.7 mV.

The values above are taken from paper PMC9037348.
